Experimental data as given in the supplement of paper PMC5998384.

Key:
HeLa Kyoto [1] = test: melting temperature (median over replicates), in situ; higher = more thermally stable
HeLa Kyoto [2] = test: solubility change mitosis vs G1/S (difference of NP-40 vs SDS log2 ratios) (log2 ratio difference); higher = more soluble in mitosis
HeLa Kyoto [3] = test: solubility in G1/S (NP-40 vs SDS abundance) (log2 ratio); higher = more soluble; settings: cell cycle stage: G1/S
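Throughout, for melting temperature (median over replicates), in situ: HeLa Kyoto cells synchronized by double thymidine or nocodazole block, proteins quantified by TMT10plex mass spectrometry, three independent biological replicates.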
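Throughout, for solubility change mitosis vs G1/S (difference of NP-40 vs SDS log2 ratios): synchronized HeLa Kyoto cells (double thymidine block for G1/S, nocodazole release for mitosis), protein amounts in NP-40 versus SDS lysates quantified by mass spectrometry, three biological replicates.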
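Throughout, for solubility in G1/S (NP-40 vs SDS abundance): HeLa Kyoto cells arrested at G1/S by double thymidine block, proteins quantified by TMT10plex mass spectrometry in mild NP-40 versus SDS extracts, three biological replicates.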

Sequence | melting temperature (HeLa Kyoto [1]; cell cycle stage: G1/S) [°C] | melting temperature (HeLa Kyoto [1]; cell cycle stage: mitosis) [°C] | solubility change mitosis (log2) (HeLa Kyoto [2]) | solubility in G1/S (log2) (HeLa Kyoto [3])
MDTAEDPAWLQLLQKDSSPPGPRPTAFFCPQDGSLGAGSSAMRDYCPSQQKASPAPPRHTPDQSPGMESRHRSPSGAGEGASCSDGPRGSLACPSPTCFSPQESPSKETLEAHGASISGTPEATTSGKPEPVSSVKTEPKSSDDRNPMFLEKMDFKSSKQADSTSIGKEDPGSSRKADPMFTGKAEPEILGKGDPVAPGRMDPMTVRKEDLGSLGKVDPLCSSKTYTVSPRKEDPGSLRKVDPVSSDKVDPVFPRKEEPRYSGKEHPVSSEKVAPTSAEKVDLVLSGKRDPGPSGKADPMPLESMDSASTGKTEPGLLGKLIPGSSGKNGPVSSGTGAPGSLGRLDPTCLGMADPASVGNVETVPATKEDSRFLGKMDPASSGEGRPVSGHTDTTASAKTDLTSLKNVDPMSSGKVDPVSLGKMDPMCSGKPELLSPGQAERVSVGKAGTVSPGKEDPVSSRREDPISAGSRKTSSEKVNPESSGKTNPVSSGPGDPRSLGTAGPPSAVKAEPATGGKGDPLSSEKAGLVASGKAAPTASGKAEPLAVGKEDPVSKGKADAGPSGQGDSVSIGKVVSTPGKTVPVPSGKVDPVSLGKAEAIPEGKVGSLPLEKGSPVTTTKADPRASGKAQPQSGGKAETKLPGQEGAAAPGEAGAVCLKKETPQASEKVDPGSCRKAEPLASGKGEPVSLGKADSAPSRKTESPSLGKVVPLSLEKTKPSSSSRQLDRKALGSARSPEGARGSEGRVEPKAEPVSSTEASSLGQKDLEAAGAERSPCPEAAAPPPGPRTRDNFTKAPSWEASAPPPPREDAGTQAGAQACVSVAVSPMSPQDGAGGSAFSFQAAPRAPSPPSRRDAGLQVSLGAAETRSVATGPMTPQAAAPPAFPEVRVRPGSALAAAVAPPEPAEPVRDVSWDEKGMTWEVYGAAMEVEVLGMAIQKHLERQIEEHGRQGAPAPPPAARAGPGRSGSVRTAPPDGAAKRPPGLFRALLQSVRRPRCCSRAGPTAE [GPRIN1] | 54.4 | 53.5 | -0.114 | 0.2
MAAHLSYGRVNLNVLREAVRRELREFLDKCAGSKAIVWDEYLTGPFGLIAQYSLLKEHEVEKMFTLKGNRLPAADVKNIIFFVRPRLELMDIIAENVLSEDRRGPTRDFHILFVPRRSLLCEQRLKDLGVLGSFIHREEYSLDLIPFDGDLLSMESEGAFKECYLEGDQTSLYHAAKGLMTLQALYGTIPQIFGKGECARQVANMMIRMKREFTGSQNSIFPVFDNLLLLDRNVDLLTPLATQLTYEGLIDEIYGIQNSYVKLPPEKFAPKKQGDGGKDLPTEAKKLQLNSAEELYAEIRDKNFNAVGSVLSKKAKIISAAFEERHNAKTVGEIKQFVSQLPHMQAARGSLANHTSIAELIKDVTTSEDFFDKLTVEQEFMSGIDTDKVNNYIEDCIAQKHSLIKVLRLVCLQSVCNSGLKQKVLDYYKREILQTYGYEHILTLHNLEKAGLLKPQTGGRNNYPTIRKTLRLWMDDVNEQNPTDISYVYSGYAPLSVRLAQLLSRPGWRSIEEVLRILPGPHFEERQPLPTGLQKKRQPGENRVTLIFFLGGVTFAEIAALRFLSQLEDGGTEYVIATTKLMNGTSWIEALMEKPF [VPS33A] | 49.4 | 49.9 | -0.165 | -0.0025
MGPPRHPQAGEIEAGGAGGGRRLQVEMSSQQFPRLGAPSTGLSQAPSQIANSGSAGLINPAATVNDESGRDSEVSAREHMSSSSSLQSREEKQEPVVVRPYPQVQMLSTHHAVASATPVAVTAPPAHLTPAVPLSFSEGLMKPPPKPTMPSRPIAPAPPSTLSLPPKVPGQVTVTMESSIPQASAIPVATISGQQGHPSNLHHIMTTNVQMSIIRSNAPGPPLHIGASHLPRGAAAAAVMSSSKVTTVLRPTSQLPNAATAQPAVQHIIHQPIQSRPPVTTSNAIPPAVVATVSATRAQSPVITTTAAHATDSALSRPTLSIQHPPSAAISIQRPAQSRDVTTRITLPSHPALGTPKQQLHTMAQKTIFSTGTPVAAATVAPILATNTIPSATTAGSVSHTQAPTSTIVTMTVPSHSSHATAVTTSNIPVAKVVPQQITHTSPRIQPDYPAERSSLIPISGHRASPNPVAMETRSDNRPSVPVQFQYFLPTYPPSAYPLAAHTYTPITSSVSTIRQYPVSAQAPNSAITAQTGVGVASTVHLNPMQLMTVDASHARHIQGIQPAPISTQGIQPAPIGTPGIQPAPLGTQGIHSATPINTQGLQPAPMGTQQPQPEGKTSAVVLADGATIVANPISNPFSAAPAATTVVQTHSQSASTNAPAQGSSPRPSILRKKPATDGAKPKSEIHVSMATPVTVSMETVSNQNNDQPTIAVPPTAQQPPPTIPTMIAAASPPSQPAVALSTIPGAVPITPPITTIAAAPPPSVTVGGSLSSVLGPPVPEIKVKEEVEPMDIMRPVSAVPPLATNTVSPSLALLANNLSMPTSDLPPGASPRKKPRKQQHVISTEEGDMMETNSTDDEKSTAKSLLVKAEKRKSPPKEYIDEEGVRYVPVRPRPPITLLRHYRNPWKAAYHHFQRYSDVRVKEEKKAMLQEIANQKGVSCRAQGWKVHLCAAQLLQLTNLEHDVYERLTNLQEGIIPKKKAATDDDLHRINELIQGNMQRCKLVMDQISEARDSMLKVLDHKDRVLKLLNKNGTVKKVSKLKRKEKV [SAP130] | 50.5 | 50 | -0.0185 | 0.147
MEPAVSLAVCALLFLLWVRLKGLEFVLIHQRWVFVCLFLLPLSLIFDIYYYVRAWVVFKLSSAPRLHEQRVRDIQKQVREWKEQGSKTFMCTGRPGWLTVSLRVGKYKKTHKNIMINLMDILEVDTKKQIVRVEPLVTMGQVTALLTSIGWTLPVLPELDDLTVGGLIMGTGIESSSHKYGLFQHICTAYELVLADGSFVRCTPSENSDLFYAVPWSCGTLGFLVAAEIRIIPAKKYVKLRFEPVRGLEAICAKFTHESQRQENHFVEGLLYSLDEAVIMTGVMTDEAEPSKLNSIGNYYKPWFFKHVENYLKTNREGLEYIPLRHYYHRHTRSIFWELQDIIPFGNNPIFRYLFGWMVPPKISLLKLTQGETLRKLYEQHHVVQDMLVPMKCLQQALHTFQNDIHVYPIWLCPFILPSQPGLVHPKGNEAELYIDIGAYGEPRVKHFEARSCMRQLEKFVRSVHGFQMLYADCYMNREEFWEMFDGSLYHKLREKLGCQDAFPEVYDKICKAARH [DHCR24] | 51.3 | 52.3 | -0.166 | -0.264
MSDKPDMAEIEKFDKSKLKKTETQEKNPLPSKETIEQEKQAGES [TMSB4X] | 52.9 | 50.4 | 0.302 | -0.978
MEDPFEEADQPTTEPGMVLDSVEAGDTTPPTKRKSKFSGFGKIFKPWKWRKKKSSDKFKETSEVLERKISMRKPREELVKRGVLLEDPEQGGEDPGKPSDAMLKNGHTTPIGNARSSSPVQVEEEPVRLASLRKAIPEEDLKKRLGSTGSQPNSEAESVPENVPKPPLLPPKRPLSSSHEASEGQAKDATSSGGTARFIISTSITTAPAATTAATSLAKTVNLSVTPSPAPRTLPAAPASTNTTATPSLTHMVPAKQPPIPPPKPAHRNSNPVIAELSQAINSGTLLSKPSPPLPPKRGIPSTSVPTLESAAAITTKTPSDEREKSTCSMGSELLPMISPRSPSPPLPTHIPPEPPRTPPFPAKTFQVVPEIEFPPSLDLHQEIPQQEDQKKEVPKRILDQNFGEPHIPSRLPPLPLHIRIQQALTSPLPMTPILEGSHRAHSLLFENSDSFSEDSSTLGRTRSLPITIEMLKVPDDEEEEEQTCPSTFSEEMTPTSVIPKLPQCLREEEEKESDSDSEGPIQYRDEEDEDESYQSALANKVKRKDTLAMKLNHRPSEPELNLNSWPCKSKEEWNEIRHQIGNTLIRRLSQRPTPEELEQRNILQPKNEADRQAEKREIKRRLTRKLSQRPTVAELLARKILRFNEYVEVTDAQDYDRRADKPWTKLTPADKAAIRKELNEFKSSEMEVHEESKHFTRYHRP [PHACTR4] | 54.3 | 54.9 | 0.0651 | 0.401
MASKLLRAVILGPPGSGKGTVCQRIAQNFGLQHLSSGHFLRENIKASTEVGEMAKQYIEKSLLVPDHVITRLMMSELENRRGQHWLLDGFPRTLGQAEALDKICEVDLVISLNIPFETLKDRLSRRWIHPPSGRVYNLDFNPPHVHGIDDVTGEPLVQQEDDKPEAVAARLRQYKDVAKPVIELYKSRGVLHQFSGTETNKIWPYVYTLFSNKITPIQSKEAY [AK4] | – | 51.3 | 0.0928 | 0.384
MAAAPQAPGRGSLRKTRPLVVKTSLNNPYIIRWSALESEDMHFILQTLEDRLKAIGLQKIEDKKKKNKTPFLKKESREKCSIAVDISENLKEKKTDAKQQVSGWTPAHVRKQLAIGVNEVTRALERRELLLVLVCKSVKPAMITSHLIQLSLSRSVPACQVPRLSERIAPVIGLKCVLALAFKKNTTDFVDEVRAIIPRVPSLSVPWLQDRIEDSGENLETEPLESQDRELLDTSFEDLSKPKRKLADGRQASVTLQPLKIKKLIPNPNKIRKPPKSKKATPK [RPP38] | 53.1 | 51.7 | -0.0549 | 0.342
MEKIEEQFANLHIVKCSLGTKEPTYLLGIDTSKTVQAGKENLVAVLCSNGSIRIYDKERLNVLREFSGYPGLLNGVRFANSCDSVYSACTDGTVKCWDARVAREKPVQLFKGYPSNIFISFDINCNDHIICAGTEKVDDDALLVFWDARMNSQNLSTTKDSLGAYSETHSDDVTQVRFHPSNPNMVVSGSSDGLVNVFDINIDNEEDALVTTCNSISSVSCIGWSGKGYKQIYCMTHDEGFYWWDLNHLDTDEPVTRLNIQDVREVVNMKEDALDYLIGGLYHEKTDTLHVIGGTNKGRIHLMNCSMSGLTHVTSLQGGHAATVRSFCWNVQDDSLLTGGEDAQLLLWKPGAIEKTFTKKESMKIASSVHQRVRVHSNDSYKRRKKQ [WDR89] | 57.4 | 55.9 | 0.369 | -1.26
MAAQLLEEKLTCAICLGLYQDPVTLPCGHNFCGACIRDWWDRCGKACPECREPFPDGAELRRNVALSGVLEVVRAGPARDPGPDPGPGPDPAARCPRHGRPLELFCRTEGRCVCSVCTVRECRLHERALLDAERLKREAQLRASLEVTQQQATQAEGQLLELRKQSSQIQNSACILASWVSGKFSSLLQALEIQHTTALRSIEVAKTQALAQARDEEQRLRVHLEAVARHGCRIRELLEQVDEQTFLQESQLLQPPGPLGPLTPLQWDEDQQLGDLKQLLSRLCGLLLEEGSHPGAPAKPVDLAPVEAPGPLAPVPSTVCPLRRKLWQNYRNLTFDPVSANRHFYLSRQDQQVKHCRQSRGPGGPGSFELWQVQCAQSFQAGHHYWEVRASDHSVTLGVSYPQLPRCRLGPHTDNIGRGPCSWGLCVQEDSLQAWHNGEAQRLPGVSGRLLGMDLDLASGCLTFYSLEPQTQPLYTFHALFNQPLTPVFWLLEGRTLTLCHQPGAVFPLGPQEEVLS [TRIM65] | 49.2 | 49.3 | -0.0816 | -0.0459
MAPERLRSRALSAFKLRGLLLRGEAIKYLTEALQSISELELEDKLEKIINAVEKQPLSSNMIERSVVEAAVQECSQSVDETIEHVFNIIGAFDIPRFVYNSERKKFLPLLMTNHPAPNLFGTPRDKAEMFRERYTILHQRTHRHELFTPPVIGSHPDESGSKFQLKTIETLLGSTTKIGDAIVLGMITQLKEGKFFLEDPTGTVQLDLSKAQFHSGLYTEACFVLAEGWFEDQVFHVNAFGFPPTEPSSTTRAYYGNINFFGGPSNTSVKTSAKLKQLEEENKDAMFVFLSDVWLDQVEVLEKLRIMFAGYSPAPPTCFILCGNFSSAPYGKNQVQALKDSLKTLADIICEYPDIHQSSRFVFVPGPEDPGFGSILPRPPLAESITNEFRQRVPFSVFTTNPCRIQYCTQEITVFREDLVNKMCRNCVRFPSSNLAIPNHFVKTILSQGHLTPLPLYVCPVYWAYDYALRVYPVPDLLVIADKYDPFTTTNTECLCINPGSFPRSGFSFKVFYPSNKTVEDSKLQGF [POLE2] | 50 | 49.6 | -0.129 | 0.148
